Data taken from US9163227B2, “Anti-diabetic compounds” (PFIZER INC., priority 2011, dated 2015).
Read-outs that look alike come from different tables or passages of the source.

B1: FGF21ΔH-D79C: FGF21 cysteine mutant, SEQ ID NO:12 (protein, listed as Homo sapiens)
chain: PIPDSSPLLQFGGQVRQRYLYTDDAQQTEAHLEIREDGTVGGAADQSPESLLQLKALKPGVIQILGVKTSRFLCQRPCGALYGSLHFDPEACSFRELLLEDGYNVYQSEAHGLPLHLPGNKSPHRDPAPRGPARFLPLPGLPPALPEPPGILAPQPPDVGSSDPLSMVGPSQGRSPSYAS
B2: FGF21: Fibroblast growth factor (FGF) 21, wild type (protein, listed as Homo sapiens)
chain: PIPDSSPLLQFGGQVRQRYLYTDDAQQTEAHLEIREDGTVGGAADQSPESLLQLKALKPGVIQILGVKTSRFLCQRPDGALYGSLHFDPEACSFRELLLEDGYNVYQSEAHGLPLHLPGNKSPHRDPAPRGPARFLPLPGLPPALPEPPGILAPQPPDVGSSDPLSMVGPSQGRSPSYAS

Experiments:
[1] = Stability assay of FGF21ΔH-D79C; type: physicochemical
Method: FGF21ΔH-D790 mutant protein was produced in E. coli and purified as described above. FGF21ΔH-D790 was expressed from 1 L of culture. A 150 mg inclusion body was obtained and 85 mg purified protein was obtained, representing a 60% yield. To test the stability of FGF21ΔH-D790 as well as FGF21ΔH (SEQ ID NO:2), freshly thawed samples were kept at 4° C. over seven days, and examined for their integrity by RP-HPLC, SEC_HPLC, Ellman assay and SDS-PAGE on day 0, 3 and 7. […] PBS (pH7.4) and 20 mM Tris-HCl 50 mM NaCl (pH7.5) made no significant difference of stability of FGF21ΔH-D79C.
It is possible that the solubility of FGF21ΔH-D79C may be reduced at pH6.0. The stability of FGF21ΔH-D79C was examined upon multiple freeze/thaw cycles. The proteins were repeated to freeze (−80 C) and thaw (4° C.) 9 times.

[2] = Body weight and liver weight in ob/ob mice; type: in vivo; details: FIG. 6A, single dose 2 mg/kg
Method: (§1) The efficacy of FGF21 antibodies conjugates was evaluated in two murine obese insulin resistant models—ob/ob mice and high-fat diet-induced obese mice. For both models, male mice (6-8 weeks of age for ob/ob, 12-14 weeks of age for DIO with high-fat diet initiated at 6 weeks of age) were housed 2-4/cage and FGF21 antibody conjugates were administered by SC injection. Body weight was measured daily in the morning. Glucose tolerance was assessed by oral glucose tolerance test. Briefly, mice were fasted for 4-5 hrs in the morning of the day of testing. A basal blood sample was obtained and blood glucose levels were determined using a portable glucometer.

[3] = target: Glut1 mRNA expression in differentiated 3T3-L1 adipocytes (Mus musculus, UniProt P16092+Q99N32); assay: Glut1 Taqman assay; type: cell-based; details: 6 hrs
Chain of Glut1 mRNA expression in differentiated 3T3-L1 adipocytes (P16092 22-822): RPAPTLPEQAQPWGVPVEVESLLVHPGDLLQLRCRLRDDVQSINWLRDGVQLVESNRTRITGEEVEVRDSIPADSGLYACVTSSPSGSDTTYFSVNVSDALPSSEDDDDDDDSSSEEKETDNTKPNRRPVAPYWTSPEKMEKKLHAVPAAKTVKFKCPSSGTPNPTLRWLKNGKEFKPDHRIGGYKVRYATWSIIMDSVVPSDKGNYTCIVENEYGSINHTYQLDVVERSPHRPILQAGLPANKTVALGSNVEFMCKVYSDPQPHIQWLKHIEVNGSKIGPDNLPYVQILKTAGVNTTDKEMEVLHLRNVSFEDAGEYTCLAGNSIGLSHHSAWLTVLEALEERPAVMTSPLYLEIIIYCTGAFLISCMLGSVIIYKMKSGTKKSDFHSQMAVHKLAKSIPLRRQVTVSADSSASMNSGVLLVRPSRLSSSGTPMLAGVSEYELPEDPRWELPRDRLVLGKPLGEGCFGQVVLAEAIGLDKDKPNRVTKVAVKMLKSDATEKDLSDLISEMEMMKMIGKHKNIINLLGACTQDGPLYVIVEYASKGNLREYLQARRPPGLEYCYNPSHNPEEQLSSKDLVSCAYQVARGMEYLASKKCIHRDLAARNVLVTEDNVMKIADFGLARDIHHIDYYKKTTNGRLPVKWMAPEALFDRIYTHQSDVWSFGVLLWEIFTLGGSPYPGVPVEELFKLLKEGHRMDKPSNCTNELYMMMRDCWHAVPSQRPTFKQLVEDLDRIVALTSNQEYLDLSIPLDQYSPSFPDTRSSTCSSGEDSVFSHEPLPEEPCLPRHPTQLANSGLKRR
Chain of Glut1 mRNA expression in differentiated 3T3-L1 adipocytes (Q99N32 whole entry): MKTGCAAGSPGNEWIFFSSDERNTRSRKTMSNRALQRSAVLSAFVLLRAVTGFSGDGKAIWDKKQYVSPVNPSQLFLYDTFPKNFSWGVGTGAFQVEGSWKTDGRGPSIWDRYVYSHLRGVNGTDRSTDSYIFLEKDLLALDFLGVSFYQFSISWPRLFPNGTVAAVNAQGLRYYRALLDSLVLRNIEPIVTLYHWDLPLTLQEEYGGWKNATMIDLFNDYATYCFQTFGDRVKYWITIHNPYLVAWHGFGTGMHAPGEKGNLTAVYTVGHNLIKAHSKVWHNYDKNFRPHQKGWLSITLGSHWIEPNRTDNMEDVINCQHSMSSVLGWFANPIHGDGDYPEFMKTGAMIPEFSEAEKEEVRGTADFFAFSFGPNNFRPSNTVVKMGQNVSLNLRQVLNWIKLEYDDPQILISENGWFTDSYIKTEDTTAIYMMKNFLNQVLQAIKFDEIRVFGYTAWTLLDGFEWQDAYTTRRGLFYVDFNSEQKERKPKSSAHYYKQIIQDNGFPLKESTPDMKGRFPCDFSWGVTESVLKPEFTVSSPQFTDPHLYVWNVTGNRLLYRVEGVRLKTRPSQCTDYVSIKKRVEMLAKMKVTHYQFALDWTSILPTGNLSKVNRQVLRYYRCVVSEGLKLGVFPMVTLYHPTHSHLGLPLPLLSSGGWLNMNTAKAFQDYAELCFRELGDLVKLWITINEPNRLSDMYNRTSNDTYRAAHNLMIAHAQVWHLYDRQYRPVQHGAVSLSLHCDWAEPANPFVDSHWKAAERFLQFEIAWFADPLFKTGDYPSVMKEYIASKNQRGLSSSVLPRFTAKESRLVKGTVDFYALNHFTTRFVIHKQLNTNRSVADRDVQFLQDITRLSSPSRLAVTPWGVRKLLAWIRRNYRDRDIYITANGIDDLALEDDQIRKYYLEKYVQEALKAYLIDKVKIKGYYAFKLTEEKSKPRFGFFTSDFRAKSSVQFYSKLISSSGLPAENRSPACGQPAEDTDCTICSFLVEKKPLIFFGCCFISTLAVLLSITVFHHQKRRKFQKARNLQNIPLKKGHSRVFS
Method: Differentiated 3T3-L1 adipocytes were used to measure the Glut1 mRNA expression by qPCR method. Overnight serum starved day 10-14 differentiated 3T3-L1 adipocytes were treated with compounds for 6 hrs. Total RNA was extracted from these cells, and Glut1 and GAPDH mRNA expression was measured using a Quantitect Probe RT-PCR kit and running a quantitative real time PCR reaction in a Taqman machine (Applied Biosystems®). The bioactivity of the compounds was determined by a fold change in Glut1 mRNA levels normalized by the GAPDH mRNA levels from each sample. EC═values as measurements of the potency of the compounds were obtained from the dose response curves in the assay.
3T3-L1 adipocytes were seeded at day 8 in 24-well tissue culture plates (Falcon®, Cat#353047), and incubated in DMEM complete medium (10% FBS, 2 mM L-glutamine, 1% P/S) at 37° C., 5% CO2. […] The medium was aspirated, and then RNA extracted from the cells using the RNeasy mini Kit according to the manufacturer's instructions. RNA was measured at A260 nm using the Spectramax® Plus spectrophotometer.
In Glut1 Taqman assay, differentiated 3T3-L1 adipocytes were used to measure the Glut1 mRNA expression by real-time quantitative PCR (qPCR) method described below. Overnight serum starved day 10-14 differentiated 3T3-L1 adipocytes were treated with compounds for 6 hrs. Total RNA was extracted from these cells, and Glut1 and GAPDH mRNA expression was measured using a Quantitect Probe RT-PCR kit and running a real time quantitative PCR reaction in a Taqman machine. The bioactivity of the compounds was determined by a fold change in Glut1 mRNA levels normalized by the GAPDH mRNA levels from each sample. In cAMP assay, Chinese hamster ovary (CHO) cells over-expressing human GLP-1R(CHO-hGLP-1R) were seeded in 96-well plates in serum-free medium with 300 uM IBMX. Cells were incubated with compounds at RT for 1 hr. The cAMP levels were measured using a CisBio cAMP Kit according to manufacturer's instructions. The bioactivity of the compounds was determined by the EC50 values obtained from the assay (see Table 42).

ob/ob mice = assay: Oral glucose tolerance test in ob/ob mice (FGF21 conjugates); type: in vivo; details: FIG. 6B; ob/ob mice, single dose 10 mg/ml (so in the source)
Method: as §1

DIO mice = assay: Sub-chronic and single dose efficacy of ABC-1 in DIO mice (body weight, food intake, OGTT, cholesterol, liver triglycerides); type: in vivo; details: Table 54: DIO mice, single SC 0.6 mg/kg
Method: Sub Chronic Dose Efficacy. […] All compounds were dosed SC once weekly, body weight and food intake was measured twice weekly, and an OGTT was conducted on day 17, 3 days after the 3rd weekly dose. On day 20, liver and serum samples were collected for lipid analysis.
All compounds were administered SC on day 0, body weight was measured twice weekly, and OGTT was conducted on day 7, 13, and 21. […] The sustained efficacy of the ABC-1 in vivo supports once weekly dosing of the compound.
Sub Chronic Dose Efficacy. […] All compounds were administered SC once weekly. Body weight was measured twice weekly, and an OGTT was conducted 3 days after the 3rd weekly dose.

Molecule | stability upon freeze/thaw cycles ([1]; freeze (−80 C) and thaw (4° C.) 9 times, RP-HPLC, SEC and Ellman assay) | stability (oxidation, dimerization) ([1]; neutral pH 7.4, 4° C., seven-day incubation) | portion oxidized ([1]; pH 6.0, 4° C., three-day incubation) | Cumulative body weight change, mean body weight [2] [g] | EC50 ([3]; differentiated 3T3-L1 adipocytes, protein or antibody conjugate as labelled, read-out: Glut1 Taqman assay EC50) [nM] | mean glucose AUC % during OGTT (ob/ob mice) [%] | EC50 ([3]; Glut1 Taqman, 3T3-L1 adipocytes, read-out: FGF21 (Glut1) EC50) [nM] | Mean Body Weight Change (g) (SEM) (DIO mice; Day 7) | Mean Glucose AUC (% of vehicle control) (DIO mice; OGTT Day 7)
B1 | Neither sample showed any difference between cycle 1 and cycles 9 | stable | more than half | 2.1 | 2.1 | 54 |  |  | 
B2 |  |  |  |  |  |  | 2.1 | +1.4 g | 99 % of vehicle control
